Here are results for 45 molecules from patent US20210380703A1.

B1: 365_G05 (antibody, V domains shown)
VH: EVQLLESGGGLVQPGGSLRLSCAASGFTFSSYGMNWVRQAPGKGLEWVSGINYNGGYKGYADSVKGRFTISRDNSKNTLYLQMNSLRAEDTAVYYCARGANWHDTALDYWGQGTLVTVSS
VL: DIQMTQSPSSLSASVGDRVTITCRASQSILSYLNWYQQKPGKAPKLVIYAATSLASGVPSRFSGSGSGTDFTLTISSLQPEDFATYYCQQSYENPLTFGGGTKVEIK
B2: 366_E08 (antibody, V domains shown)
VH: B1 VH with S31D, G33S, G50N, K58T, G59S, A106H
VL: B1 VL with L30V, S31T, V47L, L54R, A55H, E93S
B3: 367_D08 (antibody, V domains shown)
VH: B1 VH with S31D, G33S, S49A, K58T, G59S, A106H
VL: B1 VL with L54R, A55H, Y92D, E93D, N94L
B4: 367_C10 (antibody, V domains shown)
VH: B1 VH with S30D, G33S, K58T, G59S
VL: B1 VL with L30V, L33V, V47L, A51V, L54R, N94T
B5: 367_A10 (antibody, V domains shown)
VH: B1 VH with S49A, G55S, K58T, G59S, A106H
VL: B1 VL with L30I, S31T, L33V, V47L, E93D, N94L
B6: 366_F10 (antibody, V domains shown)
VH: B1 VH with S30D, G33S, S49A, K58T, G99A, A106H
VL: B1 VL with L30V, L54R, E93D, N94T
B7: 369_B05 (antibody, V domains shown)
VH: B1 VH with S30D, G33S, G59S, A106H
VL: B1 VL with L30I, V47L, E93D, N94T
B8: 367_G01 (antibody, V domains shown)
VH: B1 VH with S30D, S49A, G50S, G55S, K58T, A106H
VL: B1 VL with L30S, L54R, E93D, N94L
B9: 369_E06 (antibody, V domains shown)
VH: B1 VH with K58T, G59S
VL: B1 VL with L30I, L54R, A55H, E93D, N94S
B10: 366_B07 (antibody, V domains shown)
VH: B1 VH with S31D, K58T, G59S, A106H
VL: B1 VL with L30V, A51T, L54R, E93N, N94S
B11: 367_B04 (antibody, V domains shown)
VH: B1 VH with S30D, G33S, G55S, G59S, A106H
VL: B1 VL with V47L, L54R, N94L
B12: 366_D01 (antibody, V domains shown)
VH: B1 VH with N35H, G50S, K58T, G99A, A106H
VL: B1 VL with S31T, L33V, V47L, L54R
B13: 369_A07 (antibody, V domains shown)
VH: B1 VH with G33S, S49A
VL: B1 VL with L54R, N94S
B14: 369_D09 (antibody, V domains shown)
VH: B1 VH with S31D, G50N, K58T, G59S
VL: B1 VL with S31T, V47L, L54R, E93D, N94S
B15: 365_H07 (antibody, V domains shown)
VH: B1 VH with S30D, G33S, K58T, G59S, A106H
VL: B1 VL with L30S, S31T, L33V, V47L, L54R, A55H
B16: 367_A08 (antibody, V domains shown)
VH: B1 VH with S30D, S49A, K58T, G59S, A106H
VL: B1 VL with S31T, V47L, A51V, L54R, E93D, N94S
B17: 367_B09 (antibody, V domains shown)
VH: B1 VH with S30D, N35H, S49A, G50S, K58T, G59S, G99A
VL: B1 VL with L33V, L54R
B18: 367_A12 (antibody, V domains shown)
VH: B1 VH with G55S, K58T, G59S, A106H
VL: B1 VL with V47L, A55H, E93N
B19: 367_E05 (antibody, V domains shown)
VH: B1 VH with S49A, K58T, G59S, A106H
VL: B1 VL with V47L, L54R, A55H, E93D, N94S
B20: 367_A06 (antibody, V domains shown)
VH: B1 VH with S30D, S49A, G50S, A106H
VL: B1 VL with L33V, V47L, L54R, A55H, E93D, N94T
B21: 366_F02 (antibody, V domains shown)
VH: B1 VH with G55S, K58T, A106H
VL: B1 VL with S31T, L54R, A55H, E93D
B22: 368_B09 (antibody, V domains shown)
VH: B1 VH with S30D, G50N, A106H
VL: B1 VL with V47L, L54R, A55H, E93D, N94T
B23: 368_A04 (antibody, V domains shown)
VH: B1 VH with S30D, S31D, G33S, S49A, G59S, A106H
VL: B1 VL with S31T, A51V, L54R, N94L
B24: 367_H03 (antibody, V domains shown)
VH: B1 VH with S49A, G55S, K58T, G59S, A106H
VL: B1 VL with L30I, S31T, L33V, V47L, E93D, N94L
B25: 366_A08 (antibody, V domains shown)
VH: B1 VH with S30D, S31D, G33S, G55S, A106H
VL: B1 VL with L30V, L33V, L54R, E93N, N94S
B26: 368_F09 (antibody, V domains shown)
VH: B1 VH with G55S, K58T, G59S, A106H
VL: B1 VL with S31T, V47L, T52S, A55Q, N94T
B27: 369_D03 (antibody, V domains shown)
VH: B1 VH with G33S, K58T, G59S, A106H
VL: B1 VL with S31T, L54R
B28: 367_D12 (antibody, V domains shown)
VH: B1 VH with G33S, G50S, K58T, A106H
VL: B1 VL with L30V, L33V, L54R, N94S
B29: 367_D06 (antibody, V domains shown)
VH: B1 VH with S30D, G33S, S49A, K58T, G59S, A106H
VL: B1 VL with L30S, S31T, E93N, N94S
B30: 370_A02 (antibody, V domains shown)
VH: B1 VH with S30D, S49A, K58T
VL: B1 VL with L30V, S31T, L54R, E93D, N94S
B31: 368_H05 (antibody, V domains shown)
VH: B1 VH with G33S, S49A, G50N, G59S, A106H
VL: B1 VL with L30V, L33V, A51T, L54R, N94S
B32: 365_G09 (antibody, V domains shown)
VH: B1 VH with G33S, G59S, A106H
VL: B1 VL with L30I, S31T, L54R, E93N, N94S
B33: 366_D03 (antibody, V domains shown)
VH: B1 VH with S30D, N35H, G50S, K58T, G99A, A106H
VL: B1 VL with L33V, V47L, L54R, E93D, N94L
B34: 366_G06 (antibody, V domains shown)
VH: B1 VH with N35H, S49A, G50S, K58T, G99A, A106H
VL: B1 VL with L30V, L33V, L54R, E93D
B35: 369_C05 (antibody, V domains shown)
VH: B1 VH with S30D, G33S, S49A, K58T, G59S
VL: B1 VL with L30S, L33V, A51T, L54R, A55H, E93N, N94S
B36: 367_B12 (antibody, V domains shown)
VH: B1 VH with N35H, S49A, G50S, G59S, A106H
VL: B1 VL with L33V, E93D, N94T
B37: 368_E12 (antibody, V domains shown)
VH: B1 VH with S31D, S49A, K58T, G59S, A106H
VL: B1 VL with L30V, L33V, A51V, L54R, E93D, N94S
B38: 368_A03 (antibody, V domains shown)
VH: B1 VH with G33S, K58T, A106H
VL: B1 VL with L30I, V47L, A51V, L54R
B39: 367_A03 (antibody, V domains shown)
VH: B1 VH with S30D, S49A, K58T, G59S
VL: B1 VL with S31T, L33V, V47L, A51T, L54R, A55H, E93D, N94S
B40: 366_B05 (antibody, V domains shown)
VH: B1 VH with S31D, G33S, G55S, G59S
VL: B1 VL with L30S, A51V, L54R, N94L
B41: 367_D03 (antibody, V domains shown)
VH: B1 VH with S30D, G33S, G50S, K58T, A106H
VL: B1 VL with L30I, S31T, V47L, L54R, E93D, N94T
B42: 368_H02 (antibody, V domains shown)
VH: B1 VH with S49A, G55S, K58T, G59S
VL: B1 VL with L30V, S31T, L54R, N94S
B43: 367_C07 (antibody, V domains shown)
VH: B1 VH with G33S, G50S, G55S, K58T, A106H
VL: B1 VL with S31T, L33V, V47L, L54R, E93N, N94L
B44: 367_G04 (antibody, V domains shown)
VH: B1 VH with G33S, S49A, G55S, K58T, G59S, A106H
VL: B1 VL with L54R, E93D, N94S
B45: 369_D07 (antibody, V domains shown)
VH: B1 VH with G59S, A106H
VL: B1 VL with L30V, L54R, E93D, N94L

Numbering of substitutions follows the chain as printed.

This test has as its target human Fc (human). The test is described as follows: ELISA, negative control.
The molecule B1 registered an optical density of 0.319 OD.

B2 came in with an optical density of 0.272 OD.

Take B3: the optical density was 0.237 OD.

For B4, the optical density worked out at 0.233 OD.

On to B5, for which the optical density was 0.315 OD.

For B6, the optical density is 0.28 OD.

B7 had an optical density of 0.314 OD.

On to B8, for which the optical density amounted to 0.356 OD.

Molecule B9 gave an optical density of 0.306 OD.

B10 had an optical density of 0.215 OD.

B11 gave an optical density of 0.265 OD.

For B12, the optical density stood at 0.374 OD.

B13: the optical density is 0.288 OD.

B14 yielded an optical density of 0.287 OD.

Turning to B15, the optical density worked out at 0.33 OD.

For the molecule B16, the optical density amounted to 0.252 OD.

Molecule B17 returned an optical density of 0.476 OD.

For B18, the optical density stood at 0.39 OD.

In the case of B19, the optical density was 0.333 OD.

With B20, the optical density was determined as 0.378 OD.

With B21, the optical density worked out at 0.371 OD.

With B22, the optical density came to 0.258 OD.

On to B23, for which the optical density was found to be 0.283 OD.

As to B24, the optical density was 0.377 OD.

In turn, B25 came in with an optical density of 0.243 OD.

In the case of B26, the optical density came to 0.242 OD.

For the molecule B27, the optical density worked out at 0.391 OD.

Consider B28, for which the optical density stood at 0.309 OD.

In turn, B29 returned an optical density of 0.283 OD.

For the molecule B30, the optical density worked out at 0.425 OD.

Consider B31, for which the optical density came out at 0.277 OD.

B32 had an optical density of 0.288 OD.

Regarding B33, the optical density came out at 0.318 OD.

For B34, the optical density is 0.341 OD.

On to B35, for which the optical density is 0.32 OD.

On to B36, for which the optical density was 0.414 OD.

For the molecule B37, the optical density came out at 0.347 OD.

On to B38, for which the optical density was 0.348 OD.

As to B39, the optical density stood at 0.347 OD.

B40 had an optical density of 0.24 OD.

For the molecule B41, the optical density turned out to be 0.29 OD.

For the molecule B42, the optical density worked out at 0.348 OD.

B43: the optical density was 0.387 OD.

In the case of B44, the optical density is 0.287 OD.

Molecule B45 yielded an optical density of 0.363 OD.
